Sequences and labels used below:
B1: RHE Y-VKF (antibody, human IgG1, V domains shown)
VH: EVQLVESGGGLVQPGGSLRLSCAASGFSLTIYGAHWVRQAPGKGLEWVGVIWAGGSTNYNSALMSRFTISKDNSKNTVYLQMNSLRAEDTAVYYCARDGSSPYYYSMEVWGQGTTVTVSS
VL: EIVLTQSPATLSLSPGERATLSCSATSSVSYMHWFQQKPGQAPRLLIYSTSNLASGIPARFSGSGSGTDYTLTISSLEPEDFAVYYCQQRSSYPFTFGPGTKLDIK
notes: human IgG1/kappa
B2: HA2KB (antibody, human IgG1, V domains shown)
VH: QVQLQESGPGLVKPSETLSLTCTVSGGSISIYGAHWIRQPPGKGLEWIGVIWAGGSTNYNSALMSRVTISVDTSKNQFSLKLSSVTAADTAVYYCARDGSSPYYYSMEYWGQGTLVTVSS
VL: EIILTQSPATLSLSPGERATLSCSATSSVSYMHWFQQKPGQAPRLWIYSTSNLASGVPARFSGSGSGTDYTLTISSLEPEDFAVYYCQQRSSYPFTFGPGTKLDIK
notes: human IgG1/kappa
B3: cVHKB (antibody, human IgG1, V domains shown)
VH: QVQLKESGPGLVAPSQSLSITCTVSGFSLTIYGAHWVRQPPGKGLEWLGVIWAGGSTNYNSALMSRLSISKDNSKSQVFLKINSLQTDDTALYYCARDGSSPYYYSMEYWGQGTSVTVSS
VL: EIILTQSPATLSLSPGERATLSCSATSSVSYMHWFQQKPGQAPRLWIYSTSNLASGVPARFSGSGSGTDYTLTISSLEPEDFAVYYCQQRSSYPFTFGPGTKLDIK
notes: human IgG1/kappa
B4: HB2KA (antibody, human IgG1, V domains shown)
VH: QVQLQESGPGLVKPSETLSLTCTVSGFSLTIYGAHWVRQPPGKGLEWLGVIWAGGSTNYNSALMSRLSISKDNSKNQVSLKLSSVTAADTAVYYCARDGSSPYYYSMEYWGQGTLVTVSS
VL: EIVLTQSPATLSLSPGERATLSCSATSSVSYMHWFQQKPGQAPRLLIYSTSNLASGIPARFSGSGSGTDFTLTISSLEPEDFAVYYCQQRSSYPFTFGPGTKLDIK
notes: human IgG1/kappa
B5: HBcVK (antibody, human IgG1, V domains shown)
VH: EVQLVESGGGLVQPGGSLRLSCAVSGFSLTIYGAHWVRQAPGKGLEWLGVIWAGGSTNYNSALMSRLSISKDNSKNTVYLQMNSLRAEDTAVYYCARDGSSPYYYSMEYWGQGTTVTVSS
VL: QIILTQSPAIMSASPGEKVSITCSATSSVSYMHWFQQKPGTSPKLWIYSTSNLASGVPVRFSGSGSGTSYSLTISRMEAEDAATYYCQQRSSYPFTFGSGTKLEIK
notes: human IgG1/kappa
B6: RHE Y-VKFmut (antibody, human IgG1, V domains shown)
VH: EVQLVESGGGLVQPGGSLRLSCAASGFSLTIYGAHWVRQAPGKGLEWVGVIWAGGSTNYNSALMSRFTISKDNSKNTVYLQMNSLRAEDTAVYYCARDGSSPYYYSMEVWGQGTTVTVSS
VL: EIVLTQSPATLSLSPGERATLSCSATSSVSYMHWFQQKPGQAPRLLIYSTSNLASGIPARFSGSGSGTDYTLTISSLEPEDFAVYYCQQRSSYPYTFGPGTKLDIK
notes: human IgG1/kappa
B7: RHE Y-VKG (antibody, human IgG1, V domains shown)
VH: EVQLVESGGGLVQPGGSLRLSCAASGFSLTIYGAHWVRQAPGKGLEWVGVIWAGGSTNYNSALMSRFTISKDNSKNTVYLQMNSLRAEDTAVYYCARDGSSPYYYSMEVWGQGTTVTVSS
VL: EIVLTQSPATLSLSPGERATLSCSATSSVSYMHWYQQKPGQAPRLLIYSTSNLASGIPARFSGSGSGTDFTLTISSLEPEDFAVYYCQQRSSYPFTFGPGTKLDIK
notes: human IgG1/kappa
B8: HB2KG (antibody, V domains shown)
VH: QVQLQESGPGLVKPSETLSLTCTVSGFSLTIYGAHWVRQPPGKGLEWLGVIWAGGSTNYNSALMSRLSISKDNSKNQVSLKLSSVTAADTAVYYCARDGSSPYYYSMEYWGQGTLVTVSS
VL: EIVLTQSPATLSLSPGERATLSCSATSSVSYMHWYQQKPGQAPRLLIYSTSNLASGIPARFSGSGSGTDFTLTISSLEPEDFAVYYCQQRSSYPFTFGPGTKLDIK
notes: human IgG1/kappa
B9: HAcVK (antibody, human IgG1, V domains shown)
VH: EVQLVESGGGLVQPGGSLRLSCAASGFSLTIYGAHWVRQAPGKGLEWVSVIWAGGSTNYNSALMSRFTISKDNSKNTVYLQMNSLRAEDTAVYYCARDGSSPYYYSMEYWGQGTTVTVSS
VL: QIILTQSPAIMSASPGEKVSITCSATSSVSYMHWFQQKPGTSPKLWIYSTSNLASGVPVRFSGSGSGTSYSLTISRMEAEDAATYYCQQRSSYPFTFGSGTKLEIK
notes: human IgG1/kappa
B10: HA2KFmut (antibody, human IgG1, V domains shown)
VH: QVQLQESGPGLVKPSETLSLTCTVSGGSISIYGAHWIRQPPGKGLEWIGVIWAGGSTNYNSALMSRVTISVDTSKNQFSLKLSSVTAADTAVYYCARDGSSPYYYSMEYWGQGTLVTVSS
VL: EIVLTQSPATLSLSPGERATLSCSATSSVSYMHWFQQKPGQAPRLLIYSTSNLASGIPARFSGSGSGTDYTLTISSLEPEDFAVYYCQQRSSYPYTFGPGTKLDIK
notes: human IgG1/kappa
B11: HB2KC (antibody, human IgG1, V domains shown)
VH: QVQLQESGPGLVKPSETLSLTCTVSGFSLTIYGAHWVRQPPGKGLEWLGVIWAGGSTNYNSALMSRLSISKDNSKNQVSLKLSSVTAADTAVYYCARDGSSPYYYSMEYWGQGTLVTVSS
VL: EIILTQSPATLSLSPGERATLSCSATSSVSYMHWFQQKPGQAPRLLIYSTSNLASGIPARFSGSGSGTDFTLTISSLEPEDFAVYYCQQRSSYPFTFGPGTKLDIK
notes: human IgG1/kappa
B12: chimeric 2E2 antibody (antibody, human IgG1, kappa)
heavy: not shown
light: QIILTQSPAIMSASPGEKVSITCSATSSVSYMHWFQQKPGTSPKLWIYSTSNLASGVPVRFSGSGSGTSYSLTISRMEAEDAATYYCQQRSSYPFTFGSGTKLEIKRTVAAPSVFIFPPSDEQLKSGTASVVCLLNNFYPREAKVQWKVDNALQSGNSQESVTEQDSKDSTYSLSSTLTLSKADYEKHKVYACEVTHQGLSSPVTKSFNRGEC
notes: human IgG1/kappa; also called ch2E2; ch2E2 purified
B13: HEKA Fab fragment (Fab)
VH: EVQLVESGGGLVQPGGSLRLSCAASGFSLTIYGAHWVRQAPGKGLEWVGVIWAGGSTNYNSALMSRFTISKDNSKNTVYLQMNSLRAEDTAVYYCARDGSSPYYYSMEYWGQGTTVTVSS
light: EIVLTQSPATLSLSPGERATLSCSATSSVSYMHWFQQKPGQAPRLLIYSTSNLASGIPARFSGSGSGTDFTLTISSLEPEDFAVYYCQQRSSYPFTFGPGTKLDIKRTVAAPSVFIFPPSDEQLKSGTASVVCLLNNFYPREAKVQWKVDNALQSGNSQESVTEQDSKDSTYSLSSTLTLSKADYEKHKVYACEVTHQGLSSPVTKSFNRGEC
notes: Fab made by papain digestion
B14: mouse 2E2 Fab fragment (Fab)
VH: QVQLKESGPGLVAPSQSLSITCTVSGFSLTIYGAHWVRQPPGKGLEWLGVIWAGGSTNYNSALMSRLSISKDNSKSQVFLKINSLQTDDTALYYCARDGSSPYYYSMEYWGQGTSVTVSS
light: QIILTQSPAIMSASPGEKVSITCSATSSVSYMHWFQQKPGTSPKLWIYSTSNLASGVPVRFSGSGSGTSYSLTISRMEAEDAATYYCQQRSSYPFTFGSGTKLEIKADAAPTVSIFPPSSEQLTSGGASVVCFLNNFYPKDINVKWKIDGSERQNGVLNSWTDQDSKDSTYSMSSTLTLTKDEYERHNSYTCEATHKTSTSPIVKSFNRNEC
notes: Fab made by papain digestion of the murine IgG1; also called murine 2E2 Fab
B15: chimeric 2E2 Fab fragment (Fab)
VH: QVQLKESGPGLVAPSQSLSITCTVSGFSLTIYGAHWVRQPPGKGLEWLGVIWAGGSTNYNSALMSRLSISKDNSKSQVFLKINSLQTDDTALYYCARDGSSPYYYSMEYWGQGTSVTVSS
light: QIILTQSPAIMSASPGEKVSITCSATSSVSYMHWFQQKPGTSPKLWIYSTSNLASGVPVRFSGSGSGTSYSLTISRMEAEDAATYYCQQRSSYPFTFGSGTKLEIKRTVAAPSVFIFPPSDEQLKSGTASVVCLLNNFYPREAKVQWKVDNALQSGNSQESVTEQDSKDSTYSLSSTLTLSKADYEKHKVYACEVTHQGLSSPVTKSFNRGEC
notes: Fab made by papain digestion of the human IgG1 chimeric antibody

“And” between values parts separate entries of the source, which are not always exact repeats. Identical values can stand only once.

T1 sequence (Q9NYZ4 17-363): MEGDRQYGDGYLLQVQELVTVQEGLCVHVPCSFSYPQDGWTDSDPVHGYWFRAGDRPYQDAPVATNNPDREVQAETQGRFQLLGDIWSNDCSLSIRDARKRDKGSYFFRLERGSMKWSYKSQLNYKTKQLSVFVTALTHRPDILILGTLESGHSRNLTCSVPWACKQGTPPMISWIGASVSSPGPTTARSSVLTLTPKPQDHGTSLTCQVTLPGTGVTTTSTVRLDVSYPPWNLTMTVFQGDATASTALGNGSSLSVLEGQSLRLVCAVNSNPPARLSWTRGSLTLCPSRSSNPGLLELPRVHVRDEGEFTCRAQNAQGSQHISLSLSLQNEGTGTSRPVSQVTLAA

One assay has as its target T1, recombinant human Siglec-8 extracellular domain (ECD) (human, UniProt Q9NYZ4 17-363).
T1 construct: extracellular domain; also called Siglec-8 ECD; full Siglec-8 ECD
The assay is described as follows: ELISA, coated Siglec-8 ECD. In general terms: An ELISA detects its analyte on a solid surface through an enzyme-linked reagent.
For B1, the EC50 – broadly, the concentration at which the effect is half-maximal – turned out to be 0.091 nM.

On to B2, for which the EC50 was found to be 124 nM.

For the molecule B3, the EC50 was 0.027 nM.

Consider B4, for which the EC50 stood at 0.051 nM.

With B5, the EC50 was determined as 0.066 nM.

Take B6: the EC50 turned out to be 0.398 nM.

On to B7, for which the EC50 is 8.81 nM.

On to B8, for which the EC50 was determined as 0.227 nM.

For B9, the EC50 came to 0.067 nM.

Turning to B10, the EC50 was found to be 31.6 nM.

As for B11, the EC50 was 0.101 nM.

For B12, the EC50 is 0.062 nM and 0.044 nM and 0.043 nM.

For another assay, the target named is T2, Siglec-8-Fc tagged protein (human Siglec-8 extracellular domain fused to an immunoglobulin Fc region) (human).
T2 construct: also called Siglec-8 Fc fusion protein
T2 sequence (chain, as listed by the source limits assumed): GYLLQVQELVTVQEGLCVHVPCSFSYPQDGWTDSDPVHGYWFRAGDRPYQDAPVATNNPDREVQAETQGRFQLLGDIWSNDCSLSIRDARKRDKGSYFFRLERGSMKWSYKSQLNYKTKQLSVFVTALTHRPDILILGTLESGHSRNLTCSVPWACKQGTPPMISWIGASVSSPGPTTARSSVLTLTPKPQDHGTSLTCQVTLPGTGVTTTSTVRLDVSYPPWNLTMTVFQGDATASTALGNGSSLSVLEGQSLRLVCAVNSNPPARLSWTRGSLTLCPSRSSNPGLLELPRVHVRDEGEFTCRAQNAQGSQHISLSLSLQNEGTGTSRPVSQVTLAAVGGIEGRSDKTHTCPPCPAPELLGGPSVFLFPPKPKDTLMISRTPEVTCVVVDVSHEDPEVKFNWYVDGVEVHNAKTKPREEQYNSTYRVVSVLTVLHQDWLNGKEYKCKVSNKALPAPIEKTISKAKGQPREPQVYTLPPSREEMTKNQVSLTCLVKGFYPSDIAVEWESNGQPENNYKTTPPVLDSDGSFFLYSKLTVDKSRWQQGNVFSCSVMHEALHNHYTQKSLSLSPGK
In words: BLI (Octet Red 384), Siglec-8-Fc on anti-human capture sensors, Fab in solution. The method, then:
Antibody affinity determination was also carried out by bio-layer interferometry (ForteBio). Binding of mouse, chimeric and humanized anti-Siglec-8 antibody Fab fragments to human Siglec-8 protein was measured on a ForteBio Octet Red 384. The assay was conducted at 25° C., at an RPM of 1000 in assay buffer. […] Fab fragments (antibodies were digested with Thermo-Pierce immobilized papain per manufacturer's specifications) were diluted in assay buffer from 50 nM to 1.56 nM with 2× dilutions. The Siglec-8-Fc tagged protein was immobilized on Anti-Human-Capture sensors at 100 nM in assay buffer for 3 min to a change in nm of approximately 1.2. Two-minute associations were conducted, followed by 10-minute dissociations. Results were blanked with an empty reference AHC sensor, and analyzed in ForteBio analysis software with 1:1 global fit parameters.
For B13, the Kd was 0.464 nM; the koff – broadly, a measure of how fast the partners let go of each other – was 0.000482 s⁻¹; the kon (commonly a measure of how fast the partners come together) worked out at 1.04e+06 M⁻¹ s⁻¹.

In the case of B14, the Kd was determined as 0.536 nM, the koff worked out at 0.000612 s⁻¹ and the kon was 1.14e+06 M⁻¹ s⁻¹.

As to B15, the Kd amounted to 0.585 nM, the koff was determined as 0.000556 s⁻¹ and the kon was determined as 951000 M⁻¹ s⁻¹.

For the next assay, the target named is T3, Dimeric Siglec-8 (human Siglec-8 ECD protein) (human, UniProt Q9NYZ4 17-363).
T3 construct: extracellular domain; Analyte of the Biacore avidity assay
T3 sequence (Q9NYZ4 17-363): as the sequence (Q9NYZ4 17-363) above
In words: SPR (Biacore), antibody captured, dimeric Siglec-8 as analyte, 1:1 global fit (avidity). The protocol:
Antibody avidity determination was carried out by SPR analysis using a Biacore T200. Binding of human Siglec-8 ECD protein to mouse, chimeric and humanized anti-Siglec-8 antibodies was measured on a […]. The capture antibodies (goat-anti-human-Fc and goat-anti-mouse-Fc from Jackson Immunoresearch) were immobilized on a CM5 chip according to manufacturer's protocol (Biacore, GE). Flow-cell 1, 2 and 3 were immobilized with anti-human, and flow cell 4 with anti-mouse antibodies. The assay was conducted at 25° C., at a flow rate of […]. Assay buffer was 20 mM Tris-HCl pH 8.3, 150 mM Sodium Chloride, 0.05% Polysorbate 20, 10% glycerol, 0.1% BSA, made in ultrapure water. Dimeric Siglec-8 (impurities of monomeric and oligomeric Siglec-8 were removed by size-exclusion chromatography) was diluted in assay buffer from 15 nM to […] with 2× dilutions. Antibodies were captured to a change of approximately 120 RU. Six-minute high performance injections were conducted, followed by 120-minute dissociations. Flow cells were regenerated with 50 mM glycine pH 1.5. Results were double blanked with an empty reference cell and multiple assay buffer injections, and analyzed with 1:1 global fit parameters.
Background: SPR reads the build-up and loss of mass on a sensor chip optically.
On to B12, for which the Kd amounted to 0.016 nM, the koff was found to be 1.32e-05 s⁻¹ and the on-rate (kon) was 851000 M⁻¹ s⁻¹.

(Values after patent US20200054723A1 (ALLAKOS, published 2020).)
